± gives the standard deviation.

This series can be described thus: protein stability index of a GFP-peptide fusion (GPS, HEK-293T) (PSI 1-6); higher = more stable. To be noted: c terminus: a fixed tail appended.
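Note: 24-mer peptide tiles fused after GFP, lentivirally expressed, FACS-sorted into six equal bins by GFP/DsRed ratio, decoded by Illumina sequencing, PSI is the read-weighted mean bin number.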

On to TEPEDDRGPVVPKHSTFGQSLTQR [GNAS], for which the protein stability index worked out at 4.89 ± 0.31 (treatment: DMSO) and 4.85 ± 0.2 (treatment: MLN4924 1 uM, 8 h).
For the sequence TGEFLKLPFERLAFVLSSNSLKHC [KLHL13], the protein stability index by setting is: (treatment: DMSO) 2.55 ± 0.73; (treatment: MLN4924 1 uM, 8 h) 2.85 ± 0.52.
TGTVHRIDNTTVIYNSNIFTDPFF [KCNA1]: the protein stability index by setting is: (treatment: DMSO) 2.89 ± 0.27; (treatment: MLN4924 1 uM, 8 h) 3.05 ± 0.2.
For THQHWQQFEPQLTLWDVFGANKEV [RSAD1], in that order: 2.65 ± 0.34 and 2.66 ± 0.24.
For TIEELQQKILCAKAENARLVVNID [KRT34], in that order: 3.37 ± 0.31 and 3.41 ± 0.48.
The sequence TIVNFPITNVDLREYLSEEVQAVH [USP39] had a protein stability index (treatment: DMSO) of 2.92 ± 0.18 and a protein stability index (treatment: MLN4924 1 uM, 8 h) of 3.41 ± 0.41.
Regarding TKLPENQAIQMRLVDVACKHLTDT [INTS4], the protein stability index by setting is: (treatment: DMSO) 3.41 ± 0.11; (treatment: MLN4924 1 uM, 8 h) 3.58 ± 0.069.
The like results for TKRDSFLKRLYRAPIDWIEEYTTG [ALG2] were, in that order, 2.18 ± 0.54 and 2.23 ± 0.4.
In the case of TLEKCEKVKTMEVTSVSIELEKNF [TRIM39], the protein stability index stood at 4.16 ± 0.21 (treatment: DMSO) and 4.15 ± 0.23 (treatment: MLN4924 1 uM, 8 h).
For TLGYMPTEMELLEVSQHIKMRMGG [CABP4], in that order: 2.96 ± 0.18 and 2.94 ± 0.54.
The like results for TNSDTPTSFNHMDSDKLSGLWSRI [TOR1AIP2] were, in that order, 3.21 ± 0.21 and 3.1 ± 0.39.
Regarding TPLTEGSEDLDGHSDPEESFARDL [RETREG3], the protein stability index reads like this: (treatment: DMSO) 5.51 ± 0.18; (treatment: MLN4924 1 uM, 8 h) 5.524 ± 0.053.
The like results for TPVDMWSVGCIFAEMFRRKPLFCG [CDK4] were, in that order, 2.98 ± 0.97 and 2.64 ± 0.61.
In turn, TQESTFQELCEGLLEESDGEGEPG [NOP53] came in with a protein stability index (treatment: DMSO) of 5.59 ± 0.22 and a protein stability index (treatment: MLN4924 1 uM, 8 h) of 5.51 ± 0.22.
For TRDGFKLVMASLYHIYVALEEEIE [HMOX1], in that order: 2.15 ± 0.52 and 2.56 ± 0.51.
For TRLFHDSAVTSVRILQDEQYLMAS [DCAF4], in that order: 2.76 ± 0.18 and 2.88 ± 0.25.
For TRVPRAAIVFTDGRAQDDVSEWAS [MATN2], in that order: 4.34 ± 0.36 and 4.48 ± 0.45.
On to TSILSRLPPEALTAPSGGQWGAEP [RNF208], for which the protein stability index is 3.94 ± 0.14 (treatment: DMSO) and 4.05 ± 0.11 (treatment: MLN4924 1 uM, 8 h).
In the case of TSYCELLQNKVPLLGSSTACIVVL [PPTC7], the protein stability index by setting is: (treatment: DMSO) 2.8 ± 0.1; (treatment: MLN4924 1 uM, 8 h) 2.55 ± 0.09.
For TTDPDLILEVLRSSPMVQVDEKGE [LARP4], in that order: 4.61 ± 0.32 and 4.73 ± 0.24.
For the sequence TTKCVRQYEGHVNEYAYLPLHVHE [DCAF4], the protein stability index (treatment: DMSO) was 2.92 ± 0.39 and the protein stability index (treatment: MLN4924 1 uM, 8 h) came to 3.17 ± 0.2.
For TTSEEAVGGATPDQTTSEETVGGA [HDAC6], in that order: 5.5 ± 0.32 and 5.57 ± 0.27.
Turning to TTSTLASSLPGHAAKTLPGGAGKG [EHMT1], the protein stability index (treatment: DMSO) came to 4.77 ± 0.15 and the protein stability index (treatment: MLN4924 1 uM, 8 h) worked out at 5.28 ± 0.16.
In the case of TTVVVFVASMVLGECRQMSSSSQI [CLCN6], the protein stability index is, setting by setting: (treatment: DMSO) 3 ± 0.49; (treatment: MLN4924 1 uM, 8 h) 3.22 ± 0.24.
In turn, TVQIICNTGYRLQNNENNISCVER [CFHR2] showed a protein stability index (treatment: DMSO) of 2.44 ± 0.4 and a protein stability index (treatment: MLN4924 1 uM, 8 h) of 2.64 ± 0.25.
On to TYEVRMRTNLPIFKLKESCVRRRY [SNX12], for which the protein stability index worked out at 2.6 ± 0.15 (treatment: DMSO) and 2.54 ± 0.23 (treatment: MLN4924 1 uM, 8 h).
Consider VAFVCAFSEALAEGAVKMGMPSSL [PYCR3], for which the protein stability index was determined as 3.46 ± 0.41 (treatment: DMSO) and 2.42 ± 0.36 (treatment: MLN4924 1 uM, 8 h).
For VAKCLIGVNYPKPMVNHAEASRLN [CRY1], in that order: 2.5 ± 0.14 and 2.46 ± 0.38.
For VAVQEQEIARREKELEARVRKPAE [FLOT1], in that order: 5.44 ± 0.42 and 5.31 ± 0.17.
For the sequence VCIVQKNDTKKMYAMKYMNKQKCV [STK32A], the protein stability index (treatment: DMSO) was determined as 2.21 ± 0.11 and the protein stability index (treatment: MLN4924 1 uM, 8 h) stood at 2.5 ± 0.45.
For the sequence VCYQYPGYRGYQYILECDHHGGDY [CRYBA1], the protein stability index runs as follows: (treatment: DMSO) 2.35 ± 0.4; (treatment: MLN4924 1 uM, 8 h) 2.08 ± 0.18.
For VDEAAAESPSFLSLRKGASLSNGQ [NCK2], in that order: 4.83 ± 0.14 and 5.08 ± 0.23.
As for VDSHHEYPAMTFYSPAVMNYSIPS [ESR2], the protein stability index (treatment: DMSO) is 2.8 ± 0.18 and the protein stability index (treatment: MLN4924 1 uM, 8 h) came to 2.89 ± 0.24.
For VEYFQQSAVAMYMLYEKQKQQNVA [ZBED1], the protein stability index reads like this: (treatment: DMSO) 2.4 ± 0.18; (treatment: MLN4924 1 uM, 8 h) 2.14 ± 0.28.
For VFLHLLLLFKLVAPVTFRHHRYDD [CPN1], the protein stability index is, setting by setting: (treatment: DMSO) 3.12 ± 0.13; (treatment: MLN4924 1 uM, 8 h) 3.14 ± 0.23.
VFSQMIHLNETVKAPDIECVLRCS [FEM1B]: the protein stability index reads like this: (treatment: DMSO) 2.13 ± 0.36; (treatment: MLN4924 1 uM, 8 h) 2.11 ± 0.35.

The values are drawn from the supplement of paper PMC10567573.
